To fix the notation:
B1: N-terminal laminin fragment α1LN-LEa1-4 (domain or fragment, Homo sapiens, UniProt P25391 18-453, looked up)
chain: RQRGLFPAILNLASNAHISTNATCGEKGPEMFCKLVEHVPGRPVRNPQCRICDGNSANPRERHPISHAIDGTNNWWQSPSIQNGREYHWVTITLDLRQVFQVAYVIIKAANAPRPGNWILERSLDGTTFSPWQYYAVSDSECLSRYNITPRRGPPTYRADDEVICTSYYSRLVPLEHGEIHTSLINGRPSADDLSPKLLEFTSARYIRLRLQRIRTLNADLMTLSHREPKELDPIVTRRYYYSIKDISVGGMCICYGHASSCPWDETTKKLQCQCEHNTCGESCNRCCPGYHQQPWRPGTVSSGNTCEACNCHNKAKDCYYDESVAKQKKSLNTAGQFRGGGVCINCLQNTMGINCETCIDGYYRPHKVSPYEDEPCRPCNCDPVGSLSSVCIKDDLHSDLHNGKQPGQCPCKEGYTGEKCDRCQLGYKDYPTCVS
notes: also called laminin α1; source: HEK293, stably transfected, purified (streptactin-sepharose, thrombin digestion, SEC); not shown: double Strep II, N-terminal, cleaved
B2: full-length Net4 (Net4-FL) (natural protein, Mus musculus, UniProt Q9JI33 20-628, looked up)
chain: LNGVAGANSRCEKACNPRMGNLALGRKLRADTMCGQNATELFCFYSENADLTCRQPKCDKCNAAHSHLAHPPSAMADSSFRFPRTWWQSAEDVHREKIQLDLEAEFYFTHLIMVFKSPRPAAMVLDRSQDFGKTWKPYKYFATNCSATFGLEDDVVKKGAICTSRYSNPFPCTGGEVIFRALSPPYDIENPYSAKVQEQLKITNLRVRLLKRQSCPCQINDLNAKPHHFMHYAVYDFIVKGSCFCNGHADQCLPVEGFRPIKAPGAFHVVHGRCMCKHNTAGSHCQHCAPLYNDRPWEAADGRTGAPNECRTCKCNGHADTCHFDVNVWEASGNRSGGVCNNCQHNTEGQHCQRCKPGFYRDLRRPFSAPDACKACSCHPVGSAILPFSSVTFCDPSNGDCPCKPGVAGPHCDRCMVGYWGFGDYGCRPCDCAGSCDPLTGDCISSNADVDWYHEVPAFHSMHNKSEPSWEWEDEQGFSALRHSGKCECKEQVLGNPKAFCGMKYSYVLKIKILSAHDKGSHAEVNVKIKKVLKSTKLKILRGKRTLYPESWTNRGCTCPILNPGLEYLVAGHEDVRTGKLIVNMKSFVQHWKPALGRRVMHILKRDCV
notes: also called netrin-4; wild-type Net4; source: HEK293, stably transfected, purified (streptactin-sepharose, thrombin digestion, SEC); not shown: double Strep II, N-terminal, cleaved
B3: Net4-ΔC^ΔKAPGA (domain or fragment, Mus musculus, UniProt Q9JI33 20-462, looked up)
chain: LNGVAGANSRCEKACNPRMGNLALGRKLRADTMCGQNATELFCFYSENADLTCRQPKCDKCNAAHSHLAHPPSAMADSSFRFPRTWWQSAEDVHREKIQLDLEAEFYFTHLIMVFKSPRPAAMVLDRSQDFGKTWKPYKYFATNCSATFGLEDDVVKKGAICTSRYSNPFPCTGGEVIFRALSPPYDIENPYSAKVQEQLKITNLRVRLLKRQSCPCQINDLNAKPHHFMHYAVYDFIVKGSCFCNGHADQCLPVEGFRPIFHVVHGRCMCKHNTAGSHCQHCAPLYNDRPWEAADGRTGAPNECRTCKCNGHADTCHFDVNVWEASGNRSGGVCNNCQHNTEGQHCQRCKPGFYRDLRRPFSAPDACKACSCHPVGSAILPFSSVTFCDPSNGDCPCKPGVAGPHCDRCMVGYWGFGDYGCRPCDCAGSCDPLTGDC
notes: the limits of the deletion are printed for the combined mutant; probably made like its parent m1; also called Net4 mutant in which the specific loop b (KAPGA) within LE1 was deleted
B4: laminin γ1 short arm fragment (γ1LN-LEa1-4) (domain or fragment, Mus musculus, UniProt P02468 34-492, looked up)
chain: AMDECADEGGRPQRCMPEFVNAAFNVTVVATNTCGTPPEEYCVQTGVTGVTKSCHLCDAGQQHLQHGAAFLTDYNNQADTTWWQSQTMLAGVQYPNSINLTLHLGKAFDITYVRLKFHTSRPESFAIYKRTREDGPWIPYQYYSGSCENTYSKANRGFIRTGGDEQQALCTDEFSDISPLTGGNVAFSTLEGRPSAYNFDNSPVLQEWVTATDIRVTLNRLNTFGDEVFNEPKVLKSYYYAISDFAVGGRCKCNGHASECVKNEFDKLMCNCKHNTYGVDCEKCLPFFNDRPWRRATAESASESLPCDCNGRSQECYFDPELYRSTGHGGHCTNCRDNTDGAKCERCRENFFRLGNTEACSPCHCSPVGSLSTQCDSYGRCSCKPGVMGDKCDRCQPGFHSLTEAGCRPCSCDLRGSTDECNVETGRCVCKDNVEGFNCERCKPGFFNLESSNPKGCTP
notes: also called Lmγ1; N-terminal laminin γ1 fragment; source: HEK293, stably transfected, purified (streptactin-sepharose, thrombin digestion, SEC); not shown: double Strep II, N-terminal, cleaved
B5: Net4 lacking the C-terminal domain (Net4-ΔC) (domain or fragment, Mus musculus, UniProt Q9JI33 20-462, looked up)
chain: LNGVAGANSRCEKACNPRMGNLALGRKLRADTMCGQNATELFCFYSENADLTCRQPKCDKCNAAHSHLAHPPSAMADSSFRFPRTWWQSAEDVHREKIQLDLEAEFYFTHLIMVFKSPRPAAMVLDRSQDFGKTWKPYKYFATNCSATFGLEDDVVKKGAICTSRYSNPFPCTGGEVIFRALSPPYDIENPYSAKVQEQLKITNLRVRLLKRQSCPCQINDLNAKPHHFMHYAVYDFIVKGSCFCNGHADQCLPVEGFRPIKAPGAFHVVHGRCMCKHNTAGSHCQHCAPLYNDRPWEAADGRTGAPNECRTCKCNGHADTCHFDVNVWEASGNRSGGVCNNCQHNTEGQHCQRCKPGFYRDLRRPFSAPDACKACSCHPVGSAILPFSSVTFCDPSNGDCPCKPGVAGPHCDRCMVGYWGFGDYGCRPCDCAGSCDPLTGDC
notes: lacks domain C); Two alternative constructs were cloned: one with an N-terminal His8 tag, one with an N-terminal double Strep II tag (not both on one chain); the tag was removed by thrombin; also called netrin-4; wild-type Net4; source: HEK293, stably transfected, purified (streptactin-sepharose or nickel TALON beads, thrombin digestion, SEC); not shown: double Strep II, N-terminal, cleaved; …

Series [1] concerns the target laminin γ1 short arm fragment (γ1LN-LEa1-4) (Mus musculus) (UniProt P02468). The experiment in a line: not stated; binding assay of Supplementary Fig. 6c; method not given.
The target of series [2] is laminin γ1 (UniProt P02468). The settings on record: cited from earlier work.
The target in series [3] is B4. Put plainly: SEC; analytical size-exclusion chromatography of single proteins and of mixtures. The settings on record: both partners purified. (In general: SEC sorts molecules by how far they enter the pores of the column.)
Series [4] has as its target T1, laminin γ1 short arm fragment (γ1LN-LEa1-4) (Mus musculus, UniProt P02468 34-492).
T1 chain: B4 chain
The experiment in a line: MST.

For series [5], the target named is B4. The experiment in a line: cross-linking; increasing crosslinker concentration; Supplementary Fig. 5a. The settings on record: both partners purified.
Series [6] deals with the molecule itself. Described as above.
Series [7] has as its target B4. The experiment in a line: not stated; binding assays of Supplementary Fig. 6a,b; methods not shown (the author contributions name SPR measurements). The conditions noted are these: both partners purified. (In general: SPR reads the build-up and loss of mass on a sensor chip optically.)
In series [8] the target is T2, N-terminal laminin fragment β1LN-LEa1-4 (Homo sapiens, UniProt P07942 31-509).
T2 construct: also called laminin β1; Lmβ1; source: HEK293, stably transfected, purified (streptactin-sepharose, thrombin digestion, SEC); not shown: double Strep II, N-terminal, cleaved
T2 sequence (P07942 31-509): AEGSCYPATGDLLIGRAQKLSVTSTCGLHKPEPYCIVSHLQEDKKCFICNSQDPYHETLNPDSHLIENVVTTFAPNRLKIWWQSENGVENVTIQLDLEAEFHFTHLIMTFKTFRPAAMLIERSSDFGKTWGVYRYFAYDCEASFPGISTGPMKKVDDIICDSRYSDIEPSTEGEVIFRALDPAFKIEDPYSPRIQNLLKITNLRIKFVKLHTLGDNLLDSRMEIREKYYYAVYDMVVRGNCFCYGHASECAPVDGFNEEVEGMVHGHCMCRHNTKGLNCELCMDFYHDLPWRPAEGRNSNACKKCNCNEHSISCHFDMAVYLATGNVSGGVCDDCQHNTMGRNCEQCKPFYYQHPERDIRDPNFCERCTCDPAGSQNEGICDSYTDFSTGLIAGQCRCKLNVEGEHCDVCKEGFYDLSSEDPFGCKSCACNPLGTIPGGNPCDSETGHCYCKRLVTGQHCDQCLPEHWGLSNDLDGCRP
The experiment in a line: SEC; analytical size-exclusion chromatography of single proteins and of mixtures. The settings on record: both partners purified.

Series [9] has as its target B2. The experiment in a line: MST; 2 nM labelled γ1LN-LEa1-4; Net4 0.08-1,000 nM, Net4 mutants 0.45-4,000 nM; 50 mM Tris/HCl pH 7.4, 150 mM NaCl, 2 mM CaCl2, 3% BSA; NanoTemper Monolith NT.115. The conditions noted are these: both partners purified.
Series [10] deals with B4. Put plainly: rotary-shadowing electron microscopy; images of the Net4-ΔC-γ1LN-LEa1-4 complex. The settings on record: both partners purified.
Series [11] deals with B4. Put plainly: MST; 2 nM labelled γ1LN-LEa1-4; Net4 0.08-1,000 nM, Net4 mutants 0.45-4,000 nM; 50 mM Tris/HCl pH 7.4, 150 mM NaCl, 2 mM CaCl2, 3% BSA; NanoTemper Monolith NT.115. The settings on record: both partners purified.

Regarding “Net4-ΔC^E195A,R199A (from UniProt Q9JI33 20-462) (domain or fragment)”, the dissociation constant (Kd) (as a rule, the constant that tells how readily two partners part at equilibrium) in series [1] is 66 nM.

Consider laminin β1 (from UniProt P02469), for which, in [2], the equilibrium dissociation constant (Kd) is 5000 nM.

On to B1, for which the binding result in series [3] was “binds”.

B2 returned an equilibrium dissociation constant (Kd) in [4] of 2.26 nM. Moreover, the stoichiometry N (usually a count of units in the complex or per binding partner) in [5] was determined as 1; in [6] it was 2.

In the case of B3, the Kd in series [7] is roughly 50 nM.

As to B4, the binding result in series [8] was “binds”. In addition, in series [9], the dissociation constant (Kd) is roughly 2 nM.

Consider B5, for which the results for the dissociation constant (Kd) in series [4] and in series [11] were 2.29 nM and roughly 2 nM, respectively. Moreover, in series [10], the “stoichiometry N” value was 1.

Source of the values: article PMC5141367, “Structural decoding of netrin-4 reveals a regulatory function towards mature basement membranes” (Nature Communications, 2016).
